# The supplement of paper PMC11908140
# B1: library; numbered along this chain (parent)
# chain: MRKPRAAVGSGHRKQAASQEGRQKHAKNNSQAKPSACDGLARQPEEVVLQASVSSYHLFRDVAEVTAFRGSLLSWYDQEKRDLPWRRRAEDEMDLDRRAYAVWVSEVMLQQTQVATVINYYTGWMQKWPTLQDLASASLEEVNQLWAGLGYYSRGRRLQEGARKVVEELGGHMPRTAETLQQLLPGVGRYTAGAIASIAFGQATGVVDGNVARVLCRVRAIGADPSSTLVSQQLWGLAQQLVDPARPGDFNQAAMELGATVCTPQRPLCSQCPVESLCRARQRVEQEQLLASGSLSGSPDVEECAPNTGQCHLCLPPSEPWDQTLGVVNFPRKASRKPPREESSATCVLEQPGALGAQILLVQRPNSGLLAGLWEFPSVTWEPSEQLQRKALLQELQRWAGPLPATHLRHLGEVVHTFSHIKLTYQVYGLALEGQTPVTTVPPGARWLTQEEFHTAAVSTAMKKVFRVYQGQQPGTCMGSKRSQVSSPCSRKKPRMGQQVLDNFFRSHISTDAHSLNSAAQ
# Variants of: B1
# Test: 8OG:A repair function score (normalized; synonymous = 0, nonsense = -1) (normalized log-likelihood score); higher = more repair activity (WT-like)
# Conditions: with 8OG:A DNA repair reporter (GFP) in HEK-293 MUTYH KO cells
# How it was run: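 After 72 h, viable mCherry+ cells were split into GFP+ (repair) and GFP− bins in three replicates per tile. These cells were MUTYH knockout HEK-293 cells holding lentiviral MUTYH cDNA NNN codon-scan libraries, kept in 10 pg/ml doxycycline and co-transfected with mCherry plus an 8OG:A GFP repair reporter. Sequencing of tile amplicons gave per-tile Rosace fitness scores, normalized into a repair function score anchored on synonymous and nonsense distributions. Synonymous medians were fixed at 0, nonsense at -1, and variants under 300 counts per million at the start were removed.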
# 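Further: cells sorted at 72 h after reporter transfection.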
row,Variant,8OG:A repair function score
1,Q426W,-0.215
2,Q426V,-0.068
3,L349S,-0.842
4,A36Q,-0.0644
5,T511Q,0.0207
6,S378Q,0.0825
7,S378W,-0.346
8,G297Y,-0.0582
9,E413K,0.103
10,E140Y,-0.187
11,E140A,-0.0255
12,V206Q,-0.927
13,L277P,-0.383
14,P377Y,-0.964
15,E275V,0.0153
16,E275Y,-0.0195
17,E275I,-0.0114
18,E275P,-0.152
19,E275A,0.0221
20,V438R,0.11
21,L58I,-0.00475
22,D82T,-0.0186
23,W235G,-0.61
24,H57M,-1.63

row,Variant,8OG:A repair function score
1,H57N,-0.729
2,A357C,0.0134
3,S490G,-0.0115
4,S136W,-0.154
5,S136D,0.029
6,S136P,-0.137
7,S367V,0.0128
8,D502E,-0.0204
9,W399H,-0.291
10,W399R,-0.289
11,S292W,-0.0286
12,S292C,-0.0199
13,S292A,-0.0285
14,L169N,-0.172
15,Y151L,-0.0762
16,P306N,-0.00787
17,A391E,-0.106
18,L237S,-0.551
19,L237V,-0.463
20,G193D,-0.37
21,M496L,-0.0124
22,F200D,-0.891
23,F200E,-0.847
24,F200C,-0.266

row,Variant,8OG:A repair function score
1,L215S,-0.957
2,V62E,-0.456
3,S71E,-0.0479
4,S419M,-0.561
5,S419R,-0.334
6,L134F,-0.116
7,L134Q,-1.24
8,W447L,-0.567
9,W447N,-0.921
10,A135R,-0.0784
11,A135D,-0.636
12,A135N,-0.227
13,E285Y,-0.0542
14,S515Q,-0.00958
15,Q202W,-0.586
16,L373E,-0.788
17,R467Q,-0.0758
18,A177I,-0.142
19,Y121V,-0.91
20,G170R,-0.0153
21,G170I,-0.395
22,E303S,-0.0938
23,E303K,-0.0605
24,P442V,-0.0512

row,Variant,8OG:A repair function score
1,S74D,-0.132
2,P174Y,-0.958
3,R409Y,-0.0918
4,R409C,-0.178
5,C304M,-0.303
6,C304G,-0.343
7,Q498R,0.0169
8,I359V,-0.0354
9,S153R,-0.265
10,K390T,-0.141
11,P339C,-0.157
12,T204K,0.0186
13,H514A,-0.021
14,L430T,-0.477
15,A280Q,-0.761
16,A280D,-0.649
17,D322S,-0.0836
18,D322N,-0.00231
19,D322A,-0.0859
20,Q470K,0.0155
21,E287F,-0.0154
22,L268G,-0.0658
23,D133L,-0.0567
24,D133S,0.0612

row,Variant,8OG:A repair function score
1,S296D,0.0216
2,P494L,-0.00201
3,S197Y,-0.898
4,F504I,0.00771
5,S507E,0.000264
6,S507Q,-0.0688
7,Q110A,-2.51
8,E395Y,-0.0134
9,F453E,-1.1
10,H420L,-0.527
11,G70S,-0.0056
12,F418Q,-0.554
13,F418Y,-0.368
14,F418D,-1.06
15,S518P,-0.0287
16,S518K,-0.0195
17,L290S,-0.022
18,T476Y,-0.0187
19,G412H,-0.792
20,G412W,-0.986
21,R495C,-0.00275
22,E319M,-0.0278
23,V107N,-0.735
24,A41Y,-0.107

row,Variant,8OG:A repair function score
1,A41T,0.0139
2,A520E,0.0123
3,V468W,-0.204
4,R340Q,-0.171
5,R482H,-0.0234
6,L516C,0.00795
7,L396K,-1.03
8,R60N,0.00565
9,I421D,-0.852
10,E64V,-0.0293
11,E350I,-0.103
12,V379T,-0.0632
13,N366K,-0.0179
14,V47F,0.0442
15,P273S,-0.426
16,R69W,-3.43
17,E167Y,0.0239
18,A196K,-0.993
19,A196T,-0.342
20,Q132K,-0.364
21,T436A,0.195
22,V485N,-0.00234
23,V230D,-0.915
24,K127P,-0.884

row,Variant,8OG:A repair function score
1,Q159M,0.0724
2,N517C,-0.0105
3,Q363G,-0.38
4,T308C,-0.00889
5,R175D,-0.192
6,A162D,-1.2
7,A456I,-0.12
8,K164W,-0.0721
9,K164F,0.104
10,V328K,0.0221
11,Q111H,-0.591
12,F250C,-0.435
13,E141S,-0.0511
14,E90C,-0.00217
15,Q450C,-0.0453
16,N143D,-0.456
17,T440Y,0.157
18,V441E,-0.161
19,L403C,0.158
20,L403W,-0.318
21,M478K,0.00017
22,T424I,0.0389
23,R81D,-0.524
